The target in the assay is T1, recombinant RABL3 (human, UniProt Q5HYI8 1-236).
T1 sequence (looked up): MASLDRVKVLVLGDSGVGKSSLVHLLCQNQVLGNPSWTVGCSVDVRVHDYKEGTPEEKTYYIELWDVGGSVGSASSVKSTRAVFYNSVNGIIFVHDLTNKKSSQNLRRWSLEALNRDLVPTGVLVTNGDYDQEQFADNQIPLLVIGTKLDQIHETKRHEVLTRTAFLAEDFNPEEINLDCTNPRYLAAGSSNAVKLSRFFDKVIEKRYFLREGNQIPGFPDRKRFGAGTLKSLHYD
As to the kind of experiment: pull-down.

Consider one molecule from doi:10.1101/2022.03.14.484356 (bioRxiv, 2022).

B1: recombinant GST-RAB11A (natural protein, human, UniProt P62491 1-216, looked up)
chain: MGTRDDEYDYLFKVVLIGDSGVGKSNLLSRFTRNEFNLESKSTIGVEFATRSIQVDGKTIKAQIWDTAGQERYRAITSAYYRGAVGALLVYDIAKHLTYENVERWLKELRDHADSNIVIMLVGNKSDLRHLRAVPTDEARAFAEKNGLSFIETSALDSTNVEAAFQTILTEIYRIVSQKQMSDRRENDMSPSNNVVPIHVPPTTENKPKVQCCQNI
Turning to B1, the binding result is on record as “binds”.
